This passage reports percent inhibition results from patent publication US20140271701A1.

The target in this assay is serum antibodies (IgG) of Sardinian T1D patients, Example 1 (n=34; Ab+ sera) (human). The assay can be described thus: competition ELISA on MAP3865c125-133-coated plates, sera pre-adsorbed with saturating peptide.

Take MIIVSSCAV [ZnT8178-186 peptide (…)]: the percent inhibition lay within 57 to 89%.
